The source of these data is paper PMC12309418, “Human Plastins are Novel Cytoskeletal pH Sensors with a Reduced F-actin Bundling Capacity at Basic pH” (Journal of molecular biology, 2025).

What all share (details): both partners purified
In assay [1] the target is T1, Skeletal actin, filamentous (F-actin) (rabbit, UniProt P68135 1-377). As to the kind of experiment: co-sedimentation; high-speed co-sedimentation (300,000 g, 30 min, 25 °C), 5 uM PLS2 with 0-100 uM F-actin, 10 mM HEPES pH 7.0, 30 mM KCl, 2 mM MgCl2, 0.5 mM EGTA; fraction of PLS2 in the pellet fit to a binding curve.
Assay [2] addresses T1, Skeletal actin, filamentous (F-actin). As to the kind of experiment: co-sedimentation; high-speed co-sedimentation (300,000 g, 30 min, 25 °C), 5 uM PLS2 with 0-100 uM F-actin, 10 mM HEPES pH 8.0, 30 mM KCl, 2 mM MgCl2, 0.5 mM EGTA; fraction of PLS2 in the pellet fit to a binding curve.
Assay [3] shares this target. As to the kind of experiment: co-sedimentation; high-speed co-sedimentation (300,000 g, 30 min, 25 °C), 2 uM ABD1 with 0-125 uM F-actin, 10 mM HEPES pH 7.0, 30 mM KCl, 2 mM MgCl2, 0.5 mM EGTA; fraction depleted from the supernatant fit to a binding curve.
Assay [4] has the same target. The experiment in a line: co-sedimentation; high-speed co-sedimentation (300,000 g, 30 min, 25 °C), 2 uM ABD1 with 0-125 uM F-actin, 10 mM HEPES pH 8.0, 30 mM KCl, 2 mM MgCl2, 0.5 mM EGTA; fraction depleted from the supernatant fit to a binding curve.

B1: plastin 2 (PLS2), full-length (natural protein)
chain: MARGSVSDEEMMELREAFAKVDTDGNGYISFNELNDLFKAACLPLPGYRVREITENLMATGDLDQDGRISFDEFIKIFHGLKSTDVAKTFRKAINKKEGICAIGGTSEQSSVGTQHSYSEEEKYAFVNWINKALENDPDCRHVIPMNPNTNDLFNAVGDGIVLCKMINLSVPDTIDERTINKKKLTPFTIQENLNLALNSASAIGCHVVNIGAEDLKEGKPYLVLGLLWQVIKIGLFADIELSRNEALIALLREGESLEDLMKLSPEELLLRWANYHLENAGCNKIGNFSTDIKDSKAYYHLLEQVAPKGDEEGVPAVVIDMSGLREKDDIQRAECMLQQAERLGCRQFVTATDVVRGNPKLNLAFIANLFNRYPALHKPENQDIDWGALEGETREERTFRNWMNSLGVNPRVNHLYSDLSDALVIFQLYEKIKVPVDWNRVNKPPYPKLGGNMKKLENCNYAVELGKNQAKFSLVGIGGQDLNEGNRTLTLALIWQLMRRYTLNILEEIGGGQKVNDDIIVNWVNETLREAKKSSSISSFKDPKISTSLPVLDLIDAIQPGSINYDLLKTENLNDDEKLNNAKYAISMARKIGARVYALPEDLVEVNPKMVMTVFACLMGKGMKRV
notes: plastin 2 (PLS2, L-plastin, LCP1), human, full-length (FL) protein; Cloned in pColdI behind a 6xHis tag and TEV site; also called LCP1; L-plastin; source: E. coli BL21-CodonPlus(DE3)pLysS, purified (IMAC on cobalt resin, TEV cleavage, Superdex 200); not shown: His6, N-terminal, cleaved
For B1, the values for the Kd in assay [1] and in assay [2] were 31.7 µM and 17.7 µM, respectively.

B2: PLS2 ABD1 (a.a. 120-385) (domain or fragment)
chain: EEEKYAFVNWINKALENDPDCRHVIPMNPNTNDLFNAVGDGIVLCKMINLSVPDTIDERTINKKKLTPFTIQENLNLALNSASAIGCHVVNIGAEDLKEGKPYLVLGLLWQVIKIGLFADIELSRNEALIALLREGESLEDLMKLSPEELLLRWANYHLENAGCNKIGNFSTDIKDSKAYYHLLEQVAPKGDEEGVPAVVIDMSGLREKDDIQRAECMLQQAERLGCRQFVTATDVVRGNPKLNLAFIANLFNRYPALHKPENQDI
notes: source: E. coli BL21-CodonPlus(DE3)pLysS, purified (IMAC on cobalt resin, TEV cleavage, Superdex 200); not shown: His6, N-terminal, cleaved
For B2, the Kd (in general, the equilibrium constant for the complex coming apart) in assay [3] worked out at 24.7 µM; in assay [4] it was 13.9 µM.
